Reference: the nanobody polyreactivity screen of Harvey et al. (2022)

Assay: yeast display, Sf9 membrane polyspecificity reagent, FACS + sequencing; frameworks hold sequencing errors
Method in brief: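 A nanobody's polyreactivity label depends on the gate it was sorted from. Yeast display cells were stained with 10% biotinylated, detergent-solubilized Sf9 membrane reagent for 1 hour at 4 °C, enriched on streptavidin microbeads and sorted by FACS. The low and high (top ~1%) gates were set on anti-HA fluorescence for expression and streptavidin fluorescence for reagent binding.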

Row | Sequence | polyreactivity (PSR sort gate)
1 | QLQLVDSGGGLVQAGGSLRLSCAASGRTFRIYAMGWYRKAPGKERELVASITGGGTTNYADSVKGRFTISRDNAKYTVYLQMNSLKPEDTAVYYCAARSRTRPNVPGYGYWGQGTQVTVSS | high polyreactivity
2 | QVQLVESGGGLVQAGGSLRLSCAASGCIFRYYAMGWYRQAPGKERELVAAISWGGGSTYYADSVKGRCTISRDNAKNTVYLQINSLKPEDTAVYYCNTYTYAWSRSKRGYWGQGTQVTVSS | high polyreactivity
3 | QVQLVESGGGLVQAGGSLRLSCAASGRIFPAYVMGWYRQSPGKERELVATIDNGGGTYYADSVKGRFTISRDNAKNTVYLQMNSLKPEDTAVYYCARDRHVRWGLKMDYWGQGTQVTVSS | low polyreactivity
4 | QVQLVESGGGLVQAGGSLRLSCAASGRTFWLYAMGWYRQAPGKARELVASITRDGTSTYYADSVKGRFTISRDNPKNTVYLQMNSLKPEDTAVYYCAAVYHSKSRTIYWGQGTQVTVSS | high polyreactivity
5 | QVQLVESGGGLVQAGGSLRLICAASGSIFINNGMGWYRQAPGKERELVAAINGGDGSTYYADSVKGRFTISRDNAKNTVYLQMNSLKPEDTAVYYCAADQVTYSVEYDYWGQGTQVTVSS | low polyreactivity
6 | QVQLVESGGGLLQAGGSLRLSCAASGFIFGRNAMGWYRQAPGKERELVAAITRSGGSTYYADSVKGRFTISRDNAKNTVYLQMISLKTEDTAVYYCAKGDFYWGVFRVGIRDDYWGQGTQVNVSS | high polyreactivity
7 | QVQLVESGGGLVQAGGSLRLSCAASGSTFATNAMGWYRQAPGKERELVAAIRRGGGTYYADSVKGRFTISRDNAKNTVYLQMNSLKPEDTAVYYCAALYGGRRPYEYWGQGTQVTVSS | high polyreactivity
8 | QVQLVESGGGLVQAGGSLRLSCAASGINFYDYAMGWYRQAPGKEREFVAAISWDGVSTYYADSVKGRFTISRDNAKNTVYLQMNSLKPEDTAVYYCAARAVTDDYYEFDYWGQGTQVTVSS | low polyreactivity
9 | QVQLVESGGGLVQAGGSLRLSCAASGSIFPYYAMGWYRPAPGTERELVAAISRGGGTTYYADSVKGRFTISRDNAKNTVYLQMNSLKPEDTAVYYCAARQWRISTPYDYWGQGTQVTVSS | high polyreactivity
10 | QVQLVESGGGLVQAGGSLRLSCAASGRTFTTNAMGWYRQAPGKERELVAAITIGDDTYYADSVKGRFTISRDNAKNTVYLQMNSLKPEDTEVYYCSADYKRVPFVTQYVSKDGYWGHGTQVTVSS | low polyreactivity
11 | QVQLVESGGGLVQAGGSLRLSCAASGFTFVSYAMGWYRQEPGKEREFVASISARGGNTFYADSVKGRFTISRDNAKNTVYLQMNSLKPEDTAVYYCAKRGPYGTGYGYWGQGTQLTVSS | high polyreactivity
12 | QVQLVESRGGLVQAGGSLRLSCAASGRTFSNAMGWYRQAPGNERELVADISSGGSTNYADSVKGRFTISRDNAKNTVYLQMNSLKPEDTAVYYCAAVSGSRYGYSDDYWGQGTQVTVSS | low polyreactivity
13 | QVQLVESGGGLVQAGGSLRLSCAASGRIFSWYAMGWYRQAPGKERELVAAISWNGGSTYYADSVKGRFTISRDNAKNTVYLQMNSLKPEDTAVYYCAATYRHYGYDSWGQGTQVTVSS | high polyreactivity
14 | QVQLVESGGGLVQAGGSLRISCAASGRIFHGNARGWYRPAPGKERELVAAITSGGRTFYADSVKGRFTISRDNAKNTVYLQLHSLKPEDTAVYYCNAPSIAGYAEYNSHDYWGHGTQVTVSS | high polyreactivity
15 | QVQLVESGGGLVQAGGSLRLSCAASGSIFASYDMGWYRQAPGKERELVARITFNGGSTYYADSVKGRFTISRDNAKNTVYLQMNSLKPEETAVYYCNADYPWEYDYWGLGTQVTVSS | low polyreactivity
16 | QVQLVESGGGLVQAGGSLRLSCAASGRTFARYAMGWYRQAPGKERELVASNRRGTSTNYADSVKGRFTISRDNAKNTVYLQMNSLKPEDTAVYYCAARVGTQGDHGDYWGQGTQVTVSS | high polyreactivity
17 | QVQLVESGGGLVQAGGSLRLSCAASGRTLYRYAMGWYRQEPGKERELVAAIRSGGRTNYADSVKGRFTISRDNAKNTVYLQMNSLKPEDTAVYYCAARTLRYPSTYDYWGQGTQVTVSS | high polyreactivity
18 | QVQLVESGGGLVQAGGSLRLSCADSGITFGVYAMGWYRQAPGKERELVAAISRRGASTYYADSVKGRFTISRDNAKNTVYLQMNSLKPEDTAVYYCAAYLARRQYDYWGQGTQVTVSS | high polyreactivity
19 | QVQLVESGGGLVQAGGSLRLSCAASGSTFLRNAMGWYRQAPGKQGSWVATISYDGDSTYYADSVTGRFTISRDNAKNTVYLQMNSLKPDDPAVYYCAASYSQTFWDKDDYWGQGTQVTVSS | low polyreactivity
20 | QVQVVESGGGLVQAGGSLGLSCAASGSIFGTNAMGWSRQAPGKERELVAAISSSGTSTYYADSVKGRFTISRDKAKNTDYLQMNSLKPEDTAVYYCAAATNWGGEYWGQGTQVTVSS | high polyreactivity
21 | QDHLVESGGGLVQAGGSLRLSCAASGSIFGLYAMGWYRQSPGKERELVAAISFSGDTYYADSVKGRFTISRDNAKNTVYLQMNSLKPEDTAVYYCAAEDWYEYDYWGQGTQVTVSS | high polyreactivity
22 | QVQLVESGGGLVQAGGSLRLSCAASGSIFTFYTMGWYRQAPGKERELVAAISQTGGRTYYADSVKGRFTISRDNAKNTVYLQMNSLKPEDTAVYYCAARSKRLAHDYWGQGTQVTVSS | high polyreactivity

Row | Sequence | polyreactivity (PSR sort gate)
23 | QVQLVESGGGLVQAGGSLRLSCAASGNIFAWYAMGWYRQAPGKERELDADISSRGGSTYYADSVKGRFTISRDNAKNTVYLQMNSLKPEDTAVYYCAAVWYWTQDYDYWGQGTQVTVSS | low polyreactivity
24 | QVQLEESGGGLVQAGGSLRLSCAASGRIFYLNAMGWYRQAHGKERDLVAAITRSAASTHYADSVKGRFTISRDNAKNTVYLQLNSLKPEDTAVYYCAARFWYDYRHYDYWGQGTQVSVSS | low polyreactivity
25 | QVQLVDSGGGLVQAGGTLRLSCAASGSTLYFYAMGWYRLAPGKERELVAAITYIGGRTSYADSVKGRFTISRDNAKNTVYLQMNSLKPEDTAVYYCAAAPYGYRRYEYWGQGTQVTVSS | high polyreactivity
26 | QVQLVESGGRLVQAGGSLRLSCAASGFTFSHYAMGWYRQAPGKERELVAAISGRGGSTYYADSVKGRFTISRDNAKNTVYLPMNSLKPEDTAVYYCAARPSTYYTGHDYWGQGTQVTVSS | high polyreactivity
27 | QVQLVESGGGLVQAGGSLRLSCAASGRILKYNAMGWYRQAPGKERELVAAISYRGGSTYYADSVKGRFTISRDNAKNTVYLQMNSLKPEDTAVYYCNAGGGILNGPLFDYWGQGTQVTVSS | low polyreactivity
28 | QVQLVESGGGLVQAGGSLRLSCAASGRTFSGYAMGWYRQAPGKEREFVAAITSSGGSTYYADSVKGRFTISRDNAKNTVYLQMNSLKPEDTAVYYCAARIRHFSVGYYYWGQGTQVTVSS | high polyreactivity
29 | QVQLVESGGGLVQAGGSLRLSCADSGFIFTPYTMGWYRQAPGKERELVAAITDGSSTYYADSVKGRFTISRDNAKYTVYLQINSLKPEDTAVYYCNADGKPPYISWLYDYWGQGTQVTVSS | low polyreactivity
30 | QVQLVESGGGLVQAGGSLRLSCAASGYTFSDNAMGWYRPAPGKERELVAAITSGVSTYYADSVKGRFRISRDNAKNSVYLQMNSLNPEDTAVYYCAAEPDTYWYTYDYWGQGTQVTVSS | low polyreactivity
31 | QGHLVESGGGLFQAGGSLRLSCAASGSILSYYALGRYRQAPGKEMEMVAVINSGGRTNYADAVKGRFTISRDNAKYTVYLQMNSLKTEDTAVYDCAAQGYFVDRAGRYYRVDYRGQGTQVTVSS | high polyreactivity
32 | QVQLVESGGGLVQAGGSLRLSCAASGRTFPRYVMGWYRQAPGKERELVAAITSSGGSTYYADSVKGRFTISRDNAKNTVYLQMNSLKPEDTAVYYCAAYARPYSGPYAYRLDYWGQGTQVTVSS | high polyreactivity
33 | QVQLVESGGGLVQAGGSLRLSSAASGITFYGYARGWYRQPPGKEREFVAAISYSGGSTYYADSVKGRFTISRDNAKNTVYLQMNSLKPEDTAVYYCAARVGRSLYGYWGLGTQVTVSS | high polyreactivity
34 | QVQLVESGGGLVQAGGSLRLSCAASGRTFRRNAMGWYRQAPGKERELVASITRNGGSTYYADSVKGRFTISRDNAKNTVYLQMNILKPEDTAVYYCYKTQPIDLYGYWGQGTQVTVSS | high polyreactivity
35 | QVQLVESGGGLVQAGGSLRLSCAASGIIFRYYAMGWYRQAPGKERELVAAITSRGGSTYYADSVKGRFTISRDNAKNTVYLQMNSLKPEDTAVYYCATAYYYFSTSRADGEYWGQGTQVTVSS | high polyreactivity
36 | QVQLVESGGGLVQAGGSLRLSCAASGSTFQRYAKGWYRQAPGKEWELVAGITGSVGRTYYADSVKGRFTISRDNAKNTVDLQMNSLKPQATAVSYCAADGRTWLYYGTRRDYWGQGTQVTVSS | high polyreactivity
37 | QVQLVESGGGLVQAGGSLRLSCAASGSIFAGYAMGWYRQAPGKERELVATITSGGSTNYADSVKGRFTISRDNAKNTVYLQMNSLKPEDTAVYYCAADVEDSIPSSYTGGEYDYWGQGTQGTVSS | low polyreactivity
38 | QVQHVESGGGLVQAGGSLRLSCAASGRTFRRNVMGWYRQAPGKERELVAAISSGANTNYADSVKGRFTISRDNAKNTVYLQMNSLKPEDTAVYYCNARWQEPLKYDYWGQGTQVTVSS | low polyreactivity
39 | QVQLVESGGGLVQAGGSLRLSCAASGSTFSTNAMGWYRQAPAKERELVAAISYSGGSTYYADSVKGRFTISRDNAKNTVYLQMLSLKPEDTAVYYCAADGYYYNSGGRYYEFYYWGQGTQVTVSS | low polyreactivity
40 | QVQLVESGGGLVQAGGSLRLSCADSGRTFGPYAMGWYRQAPGKERELVAAITSSGGSTYYADSVKGRFTISRDNAKNTVSLQMNSLKPEDTAVYYCNKLYWRQSQDYDYWGQGTQVTVSS | low polyreactivity
41 | QVQLVESGGGLVQAGGSLRLSCAASGSTFTINAMGWYRQAPGKERELVAAISWSDVDTYYADSVKGRFTISGDTAKNTVYLQMNSLKPEDTAVYYCSAQFSYRYYTDEVGYLGQGTQVTVSS | high polyreactivity
42 | QVQLVESGGGLVQAGGSLRLSCAASGSILTPYAMGWYRQAPGKERELVAAISWGDGSTYYADSVKGRFTISRDNAKNTVYLQMNSLNPEDNAVYYCAAVSYYGVDQYRITVYTYEYWGQGTQVTVSS | low polyreactivity
43 | QVQLVESGGGLVQAGGSLRLSCAASGSTFYYYTMGWYRQAPGKERELVASISGNVGSTSYADSVKGRFTISRDNAKNTVYLQMNSLKPEDTAVYYCNTDWGYYHSPDSDYWGQGTQVTVSS | low polyreactivity
